Laboratory results from paper PMC6994259 (Nature, 2020).

T1: Sgf73 (S. cerevisiae, UniProt P53165 1-657)
T1 sequence: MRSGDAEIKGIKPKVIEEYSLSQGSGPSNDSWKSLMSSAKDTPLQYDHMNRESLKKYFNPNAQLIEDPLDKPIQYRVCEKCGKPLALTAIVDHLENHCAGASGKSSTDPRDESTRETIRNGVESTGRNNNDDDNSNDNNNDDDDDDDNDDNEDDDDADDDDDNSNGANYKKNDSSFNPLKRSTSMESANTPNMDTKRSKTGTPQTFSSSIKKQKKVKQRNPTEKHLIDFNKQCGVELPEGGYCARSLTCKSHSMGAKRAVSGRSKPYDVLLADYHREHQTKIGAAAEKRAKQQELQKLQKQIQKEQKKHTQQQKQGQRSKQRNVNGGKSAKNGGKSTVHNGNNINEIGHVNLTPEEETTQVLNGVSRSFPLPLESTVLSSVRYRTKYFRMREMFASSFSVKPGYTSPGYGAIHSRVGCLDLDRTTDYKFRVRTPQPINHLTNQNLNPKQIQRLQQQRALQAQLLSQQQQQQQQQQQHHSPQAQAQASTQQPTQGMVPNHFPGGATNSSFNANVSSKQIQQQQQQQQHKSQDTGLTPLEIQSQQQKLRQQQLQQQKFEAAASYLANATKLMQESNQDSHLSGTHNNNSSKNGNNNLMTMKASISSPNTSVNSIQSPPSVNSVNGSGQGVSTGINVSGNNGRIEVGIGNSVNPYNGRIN

T2: Spt20 (S. cerevisiae, UniProt P50875 1-604)
T2 sequence: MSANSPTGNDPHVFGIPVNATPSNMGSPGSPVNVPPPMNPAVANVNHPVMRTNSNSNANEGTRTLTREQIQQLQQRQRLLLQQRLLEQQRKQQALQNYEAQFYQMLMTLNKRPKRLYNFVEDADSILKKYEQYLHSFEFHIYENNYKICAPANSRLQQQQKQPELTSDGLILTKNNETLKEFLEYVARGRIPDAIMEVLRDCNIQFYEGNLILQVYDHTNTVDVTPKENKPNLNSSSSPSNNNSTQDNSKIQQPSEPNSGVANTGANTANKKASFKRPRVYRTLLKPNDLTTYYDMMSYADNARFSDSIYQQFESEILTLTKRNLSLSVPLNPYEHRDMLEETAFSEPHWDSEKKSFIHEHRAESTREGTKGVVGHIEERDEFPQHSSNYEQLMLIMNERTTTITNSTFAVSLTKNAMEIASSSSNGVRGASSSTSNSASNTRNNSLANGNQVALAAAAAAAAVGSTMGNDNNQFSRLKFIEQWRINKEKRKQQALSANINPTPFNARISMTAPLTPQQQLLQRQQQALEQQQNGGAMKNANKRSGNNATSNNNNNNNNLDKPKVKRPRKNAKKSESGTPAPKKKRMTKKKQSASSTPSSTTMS

B1: Taf12 (natural protein)
chain: MSSNPENSGVNANNNTGTGNADAITGAQQNMVLQPRQLQEMAAKFRTLLTEARNVGETTPRGKELMFQAAKIKQVYDALTLNRRRQQAAQAYNNTSNSNSSNPASIPTENVPNSSQQQQQQQQQTRNNSNKFSNMIKQVLTPEENQEYEKLWQNFQVRHTSIKEKETYLKQNIDRLEQEINKQTDEGPKQQLQEKKIELLNDWKVLKIEYTKLFNNYQNSKKTFYVECARHNPALHKFLQESTQQQRVQQQRVQQQQQQQQQQQQQQQQQQQQQQQRQGQNQRKISSSNSTEIPSVTGPDALKSQQQQQNTITATNNPRGNVNTSQTEQSKAKVTNVNATASMLNNISSSKSAIFKQTEPAIPISENISTKTPAPVAYRSNRPTITGGSAMNASALNTPATTKLPPYEMDTQRVMSKRKLRELVKTVGIDEGDGETVIDGDVEELLLDLADDFVTNVTAFSCRLAKHRKSDNLEARDIQLHLERNWNIRIPGYSADEIRSTRKWNPSQNYNQKLQSITSDKVAAAKNNGNNVASLNTKK

Legend:
Experiment in all cases: cryo-EM structure
Taf12 = molecular target: B1
Sgf73 = molecular target: T1, Sgf73
Tra1 = Tra1 (S. cerevisiae, UniProt P38811 1-3744)
Spt20 = molecular target: T2, Spt20

Sequence of Tra1 (P38811 whole entry): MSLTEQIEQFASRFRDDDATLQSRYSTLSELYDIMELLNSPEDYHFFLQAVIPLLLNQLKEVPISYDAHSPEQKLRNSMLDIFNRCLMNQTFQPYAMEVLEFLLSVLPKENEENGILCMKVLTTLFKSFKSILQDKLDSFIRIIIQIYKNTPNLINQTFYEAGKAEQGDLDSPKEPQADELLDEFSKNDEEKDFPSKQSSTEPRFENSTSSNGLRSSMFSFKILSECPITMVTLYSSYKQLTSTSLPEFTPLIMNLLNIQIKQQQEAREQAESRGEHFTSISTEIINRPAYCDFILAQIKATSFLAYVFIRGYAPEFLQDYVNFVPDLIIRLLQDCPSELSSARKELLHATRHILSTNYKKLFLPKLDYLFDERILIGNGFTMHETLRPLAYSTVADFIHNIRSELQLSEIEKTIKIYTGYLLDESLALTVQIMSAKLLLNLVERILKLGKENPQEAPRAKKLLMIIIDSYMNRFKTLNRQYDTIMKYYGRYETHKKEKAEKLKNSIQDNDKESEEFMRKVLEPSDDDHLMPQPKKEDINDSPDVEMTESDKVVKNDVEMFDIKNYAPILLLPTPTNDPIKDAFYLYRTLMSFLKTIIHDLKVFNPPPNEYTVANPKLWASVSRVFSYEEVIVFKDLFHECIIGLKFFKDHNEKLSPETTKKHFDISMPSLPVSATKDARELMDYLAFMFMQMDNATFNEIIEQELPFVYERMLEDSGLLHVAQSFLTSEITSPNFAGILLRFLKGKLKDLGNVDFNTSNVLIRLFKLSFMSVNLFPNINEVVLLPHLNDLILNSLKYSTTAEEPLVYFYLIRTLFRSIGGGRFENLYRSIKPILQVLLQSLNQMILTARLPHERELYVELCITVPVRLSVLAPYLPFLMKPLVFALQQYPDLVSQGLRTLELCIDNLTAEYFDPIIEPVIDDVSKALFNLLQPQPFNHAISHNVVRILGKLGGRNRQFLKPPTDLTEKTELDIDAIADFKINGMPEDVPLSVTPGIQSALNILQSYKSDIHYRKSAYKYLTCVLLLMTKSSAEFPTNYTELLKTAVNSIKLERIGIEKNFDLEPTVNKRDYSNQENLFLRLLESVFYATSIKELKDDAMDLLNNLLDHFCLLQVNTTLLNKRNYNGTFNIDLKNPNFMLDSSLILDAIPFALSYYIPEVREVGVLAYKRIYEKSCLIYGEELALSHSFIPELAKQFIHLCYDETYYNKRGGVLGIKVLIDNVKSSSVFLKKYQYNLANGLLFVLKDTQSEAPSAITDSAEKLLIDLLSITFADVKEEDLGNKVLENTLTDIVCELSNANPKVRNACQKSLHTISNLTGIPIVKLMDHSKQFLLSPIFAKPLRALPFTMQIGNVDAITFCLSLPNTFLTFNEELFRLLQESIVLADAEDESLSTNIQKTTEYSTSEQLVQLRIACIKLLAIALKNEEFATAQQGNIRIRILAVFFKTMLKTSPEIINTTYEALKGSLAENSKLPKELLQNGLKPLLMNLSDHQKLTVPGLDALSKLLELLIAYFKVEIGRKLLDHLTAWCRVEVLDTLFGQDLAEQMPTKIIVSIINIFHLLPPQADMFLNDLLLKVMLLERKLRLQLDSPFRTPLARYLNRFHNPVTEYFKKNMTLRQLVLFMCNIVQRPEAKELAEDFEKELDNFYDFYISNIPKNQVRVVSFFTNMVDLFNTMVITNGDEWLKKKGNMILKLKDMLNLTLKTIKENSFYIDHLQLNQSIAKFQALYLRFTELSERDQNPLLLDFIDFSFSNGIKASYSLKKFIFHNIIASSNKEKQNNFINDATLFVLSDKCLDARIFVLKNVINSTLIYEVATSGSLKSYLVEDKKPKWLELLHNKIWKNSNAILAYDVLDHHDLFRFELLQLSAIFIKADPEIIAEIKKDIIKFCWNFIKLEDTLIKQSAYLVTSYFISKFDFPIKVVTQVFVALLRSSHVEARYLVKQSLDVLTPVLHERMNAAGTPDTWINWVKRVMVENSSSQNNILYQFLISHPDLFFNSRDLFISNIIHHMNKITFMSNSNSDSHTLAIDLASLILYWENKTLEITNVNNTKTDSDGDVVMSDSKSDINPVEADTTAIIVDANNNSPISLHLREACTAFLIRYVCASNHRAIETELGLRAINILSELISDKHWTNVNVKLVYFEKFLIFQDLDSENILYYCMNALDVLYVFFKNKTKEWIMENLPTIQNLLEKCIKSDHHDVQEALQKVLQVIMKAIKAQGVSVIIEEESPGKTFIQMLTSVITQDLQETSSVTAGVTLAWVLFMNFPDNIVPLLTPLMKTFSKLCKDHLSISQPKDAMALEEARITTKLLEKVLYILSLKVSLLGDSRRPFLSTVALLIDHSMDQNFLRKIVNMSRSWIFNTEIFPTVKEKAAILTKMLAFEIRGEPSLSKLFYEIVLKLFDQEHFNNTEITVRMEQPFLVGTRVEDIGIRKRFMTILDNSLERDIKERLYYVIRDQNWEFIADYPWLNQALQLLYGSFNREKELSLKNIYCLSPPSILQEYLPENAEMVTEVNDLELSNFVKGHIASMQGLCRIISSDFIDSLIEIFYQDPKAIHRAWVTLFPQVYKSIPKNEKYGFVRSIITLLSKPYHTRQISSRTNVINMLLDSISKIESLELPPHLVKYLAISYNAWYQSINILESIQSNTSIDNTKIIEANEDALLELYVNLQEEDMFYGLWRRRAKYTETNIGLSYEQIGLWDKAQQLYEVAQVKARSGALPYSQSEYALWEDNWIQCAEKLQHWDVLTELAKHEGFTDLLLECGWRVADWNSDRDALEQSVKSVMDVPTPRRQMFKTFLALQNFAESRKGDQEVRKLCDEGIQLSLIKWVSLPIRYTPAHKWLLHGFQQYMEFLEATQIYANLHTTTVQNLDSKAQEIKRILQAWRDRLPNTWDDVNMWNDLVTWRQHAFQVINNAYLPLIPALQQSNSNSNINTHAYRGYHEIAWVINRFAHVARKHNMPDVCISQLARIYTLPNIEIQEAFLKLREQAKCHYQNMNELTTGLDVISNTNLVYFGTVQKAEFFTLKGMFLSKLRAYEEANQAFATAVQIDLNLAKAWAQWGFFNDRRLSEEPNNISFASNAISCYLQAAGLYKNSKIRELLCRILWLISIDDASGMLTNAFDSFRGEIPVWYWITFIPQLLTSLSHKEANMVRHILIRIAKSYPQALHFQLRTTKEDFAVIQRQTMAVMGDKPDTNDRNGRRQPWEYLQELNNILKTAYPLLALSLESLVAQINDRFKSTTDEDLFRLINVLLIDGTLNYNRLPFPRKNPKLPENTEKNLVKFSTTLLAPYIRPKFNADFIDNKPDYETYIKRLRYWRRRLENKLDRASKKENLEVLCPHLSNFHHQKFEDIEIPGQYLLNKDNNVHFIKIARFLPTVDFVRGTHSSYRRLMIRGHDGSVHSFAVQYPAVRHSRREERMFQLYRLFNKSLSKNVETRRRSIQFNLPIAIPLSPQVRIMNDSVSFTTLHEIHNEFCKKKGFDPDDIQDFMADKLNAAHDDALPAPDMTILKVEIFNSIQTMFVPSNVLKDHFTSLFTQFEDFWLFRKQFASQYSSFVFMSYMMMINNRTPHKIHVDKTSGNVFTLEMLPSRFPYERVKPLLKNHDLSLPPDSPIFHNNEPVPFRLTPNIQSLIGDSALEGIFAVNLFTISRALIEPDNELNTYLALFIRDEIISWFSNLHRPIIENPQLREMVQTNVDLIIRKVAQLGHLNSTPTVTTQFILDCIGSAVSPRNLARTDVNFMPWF

| binding result (Taf12) | binding result (Sgf73) | binding result (Tra1) | binding result (Spt20) | Binder |
| --- | --- | --- | --- | --- |
| binds | binds | – | – | Ada1 (natural protein) MSAIQSPAPKPLQPTYPAASPASTNAYMKPGLIGSPAVSNHTEPNNGNNETAEPQGPNQRIDLGAMIEELTSLLGKESWTKYAQIISLFILGKLSRKELSNELELVFSPSAASLEKSNTNHHHSLVRLHNQLLLGIFANSLRENPLGRNGNESSWGFGNGSNNPNNKLKRINKHNSQIEVYKKIVMSLPLNDRNRLKMITKEAGKRGFIFCSVFQARLNNIPKIPIVTNPESLKRVKSNNLKTPLEWSQDIMNGFNVPLASESHSLPDTDSFYLRMVGIAREHGLVGTVDARCVELISLALDQYLKNIIEFTIDTVRYRRKKYSDYYDLNESGLYKSVSEMAADKRDAKIKQLDDDKNEDECADEAKSINNGNNSSKDDIGDISMSSITKAGEAVNEELHENRTISLTNEDIYDSLSIFPNLVEPSGSYYALTNLGLVNDDELVDMKSNIDDLPDFLNEKPTFTPLDERNVGTRHELNWLIKGILTED |
| – | binds | binds | binds | B1 |
